Source: publication PMC2064081 (The Journal of Cell Biology, 2007)

Target: F-actin (rabbit muscle actin, filaments) (rabbit, UniProt P68135 1-377)
Assay: co-sedimentation

B1: IRSp53/IMD (IRSp53/MIM domain of human IRSp53) (domain or fragment)
chain: MSLSRSEEMHRLTENVYKTIMEQFNPSLRNFIAMGKNYEKALAGVTYAAKGYFDALVKMGELASESQGSKELGDVLFQMAEVHRQIQNQLEEMLKSFHNELLTQLEQKVELDSRYLSAALKKYQTEQRSKGDALDKCQAELKKLRKKSQGSKNPQKYSDKELQYIDAISNKQGELENYVSDGYKTALTEERRRFCFLVEKQCAVAKNSAAYHSKGKELLAQKLPLWQQACADPSKIPERAVQLMQQVASN
B1: binds.
